How the values were obtained:
[1] = target: T1, Recombinant aggregated ROR1 protein, AlexaFluor647-labeled (UniProt Q01973 30-403, limits assumed, labeled with AlexaFluor647); assay: flow cytometry; CAR T cells stained with 5.3 µg/ml AlexaFluor647-labeled aggregated ROR1
T1 construct: Soluble labelled protein used to stain CAR T cells; also called ROR1 antigen
Description: Afterwards the cells were washed with PBS, 0.25% FCS and analyzed by flow cytometry.
Recombinant aggregated ROR1 protein was labeled with the AlexaFluor647 labeling kit (ThermoFisher Scientific, MA) and used to stain T cells expressing ROR1 CARs. The T cells were washed once in PBS, 0.25% FCS and then resuspended in the same buffer containing a final concentration of 5.3 μg/ml labeled ROR1 protein and monoclonal αEGFRt antibody. After an incubation time of 15 min the cells were washed with an excess of PBS, 0.25% FCS and analyzed by flow cytometry.

[2] = target: ROR1 on ROR1-positive target cells (K562-ROR1, MDA-MB-231, A549) (human, UniProt Q01973 30-937); assay: cell-based or functional assay
Sequence of ROR1 on ROR1-positive target cells (K562-ROR1, MDA-MB-231, A549) (Q01973 30-937): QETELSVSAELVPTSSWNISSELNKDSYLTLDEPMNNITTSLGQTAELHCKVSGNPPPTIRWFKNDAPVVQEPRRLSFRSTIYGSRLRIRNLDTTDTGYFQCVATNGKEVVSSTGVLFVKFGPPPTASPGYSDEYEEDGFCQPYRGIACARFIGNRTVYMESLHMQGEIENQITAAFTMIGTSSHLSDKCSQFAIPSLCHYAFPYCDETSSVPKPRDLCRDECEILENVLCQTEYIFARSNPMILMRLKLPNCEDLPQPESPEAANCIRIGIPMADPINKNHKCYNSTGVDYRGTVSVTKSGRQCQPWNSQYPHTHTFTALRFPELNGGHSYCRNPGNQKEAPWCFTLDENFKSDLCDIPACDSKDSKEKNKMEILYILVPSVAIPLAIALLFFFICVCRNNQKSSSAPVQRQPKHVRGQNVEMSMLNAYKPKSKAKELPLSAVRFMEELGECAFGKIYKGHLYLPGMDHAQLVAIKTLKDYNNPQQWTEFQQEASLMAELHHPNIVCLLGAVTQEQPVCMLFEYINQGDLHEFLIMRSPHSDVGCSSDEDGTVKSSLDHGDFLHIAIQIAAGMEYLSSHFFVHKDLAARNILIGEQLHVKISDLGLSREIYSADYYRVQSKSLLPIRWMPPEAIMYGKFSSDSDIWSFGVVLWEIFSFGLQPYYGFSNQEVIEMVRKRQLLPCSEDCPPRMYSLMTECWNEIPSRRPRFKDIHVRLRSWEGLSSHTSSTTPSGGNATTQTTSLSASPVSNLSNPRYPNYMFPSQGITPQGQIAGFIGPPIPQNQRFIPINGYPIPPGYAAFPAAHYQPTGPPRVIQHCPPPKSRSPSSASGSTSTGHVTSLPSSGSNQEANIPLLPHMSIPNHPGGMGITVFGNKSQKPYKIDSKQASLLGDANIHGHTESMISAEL

T1 sequence (Q01973 30-403 limits assumed): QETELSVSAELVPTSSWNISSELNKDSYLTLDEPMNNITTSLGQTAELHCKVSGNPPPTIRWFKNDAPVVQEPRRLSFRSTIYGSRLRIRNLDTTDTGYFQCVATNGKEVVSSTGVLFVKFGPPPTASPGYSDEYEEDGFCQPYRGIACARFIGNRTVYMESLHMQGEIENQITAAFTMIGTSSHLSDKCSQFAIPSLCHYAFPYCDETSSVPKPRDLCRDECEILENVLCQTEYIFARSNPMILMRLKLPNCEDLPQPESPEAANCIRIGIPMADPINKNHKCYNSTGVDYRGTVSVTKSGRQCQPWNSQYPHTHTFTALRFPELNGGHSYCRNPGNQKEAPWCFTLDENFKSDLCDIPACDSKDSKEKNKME

B1: non-humanized 2A2 ROR1 CAR (other)
chain: QVQLQQSGAELVRPGASVTLSCKASGYTFSDYEMHWVIQTPVHGLEWIGAIDPETGGTAYNQKFKGKAILTADKSSSTAYMELRSLTSEDSAVYYCTGYYDYDSFTYWGQGTLVTVSAGGGGSGGGGSGGGGSDIVMTQSQKIMSTTVGDRVSITCKASQNVDAAVAWYQQKPGQSPKLLIYSASNRYTGVPDRFTGSGSGTDFTLTISNMQSEDLADYFCQQYDIYPYTFGGGTKLEIK
notes: Chimeric antigen receptor on primary human T cells; also called 2A2 CAR; non-humanized 2A2 CAR; not shown: spacer, transmembrane, 4-1BB and CD3z parts of the non-humanized CAR are not spelled out; construct described only by re
- percentage of T cells with a distinct AlexaFluor647 signal [1]: 62.7%
- percentage of T cells with high AlexaFluor647 signal [1]: 2.61%

B2: humanized R12 ROR1 CAR (other)
chain: QVQLVESGGALVQPGGSLTLSCKASGFDFSAYYMSWVRQAPGKGLEWIATIYPSSGKTYYAASVQGRFTISADNAKNTVYLQMNSLTAADTATYFCARDSYADDGALFNIWGQGTLVTVSSGGGGSGGGGSGGGGSQLVLTQSPSVSAALGSSAKITCTLSSAHKTDTIDWYQQLAGQAPRYLMYVQSDGSYEKRSGVPDRFSGSSSGADRYLIISSVQADDEADYYCGADYIGGYVFGGGTQLTVGESKYGPPCPPCPMFWVLVVVGGVLACYSLLVTVAFIIFWVKRGRKKLLYIFKQPFMRPVQTTQEEDGCSCRFPEEEEGGCELRVKFSRSADAPAYQQGQNQLYNELNLGRREEYDVLDKRRGRDPEMGGKPRRKNPQEGLYNELQKDKMAEAYSEIGMKGERRRGKGHDGLYQGLSTATKDTYDALHMQALPPR
notes: Chimeric antigen receptor with an scFv targeting domain, on primary human T cells; also called hR12 CAR; hR12
- proliferation index with MDA-MB-231 target cells, fold against the non-humanized R12 CAR [2]: ~2 fold
- percentage of T cells with a distinct AlexaFluor647 signal [1]: 79%
- percentage of T cells with high AlexaFluor647 signal [1]: 7.68%

B3: humanized 2A2 ROR1 CAR (other)
chain: EVQLVQSGAEVKKPGASVKVSCKASGYTFSDYEMHWVRQAPGQGLEWLGAIDPETGGTAYNQKFKGRVTMTGDTSISTAYMELSRLTSDDTAVYYCTGYYDYDSFTYWGQGTLVSVSSGGGGSGGGGSGGGGSDIQMTQSPSSLSTSVGDRVTITCKASQNVDAAVAWYQQKPGKAPKLLIYSASNRYTGVASRFSGSGSGTDFTFTISSLQSEDLADYFCQQYDIYPYTFGQGTKLEIKESKYGPPCPPCPMFWVLVVVGGVLACYSLLVTVAFIIFWVKRGRKKLLYIFKQPFMRPVQTTQEEDGCSCRFPEEEEGGCELRVKFSRSADAPAYQQGQNQLYNELNLGRREEYDVLDKRRGRDPEMGGKPRRKNPQEGLYNELQKDKMAEAYSEIGMKGERRRGKGHDGLYQGLSTATKDTYDALHMQALPPR
notes: Chimeric antigen receptor with an scFv targeting domain, expressed on primary human T cells after lentiviral transduction; also called h2A2 CAR; h2A2
- percentage of T cells with a distinct AlexaFluor647 signal [1]: 92.1%
- percentage of T cells with high AlexaFluor647 signal [1]: 20%

B4: non-humanized R12 ROR1 CAR (other)
chain: QEQLVESGGRLVTPGGSLTLSCKASGFDFSAYYMSWVRQAPGKGLEWIATIYPSSGKTYYATWVNGRFTISSDNAQNTVDLQMNSLTAADRATYFCARDSYADDGALFNIWGPGTLVTISSGGGGSGGGGSGGGGSELVLTQSPSVSAALGSPAKITCTLSSAHKTDTIDWYQQLQGEAPRYLMQVQSDGSYTKRPGVPDRFSGSSSGADRYLIIPSVQADDEADYYCGADYIGGYVFGGGTQLTVTG
notes: Chimeric antigen receptor on primary human T cells; also called R12 CAR; non-humanized R12 CAR; not shown: spacer, transmembrane, 4-1BB and CD3z parts of the non-humanized CAR are not spelled out; construct described only by re
- percentage of T cells with a distinct AlexaFluor647 signal [1]: 47.6%
- percentage of T cells with high AlexaFluor647 signal [1]: 0.7%

Reference: US20200040058A1 (JULIUS MAXIMILIANS UNIVERSIT T W RZBURG, published 2020)
